The target of the data set is Fis (UniProt A0A0H2ZIA5 1-107). The data set is described as follows: EMSA. Conditions: protein: recombinant; chain copies: 2; label: none (ethidium bromide stain). (Mobility shift assays separate free from complexed probe on a gel.)

The values below come from paper PMC5395579, “Fis Regulates Type III Secretion System by Influencing the Transcription of exsA in Pseudomonas aeruginosa Strain PA14”.

B1: exsA promoter -10 box probe (original Fis site, exsB-exsA intergenic) (dsDNA)
DNA 1: TAATCCTGATTATTATAAAATCGACTCCGTG
DNA 2: CACGGAGTCGATTTTATAATAATCAGGATTA
In the case of B1, the binding result is listed as “binds”.
